Article PMC12613623

Legend:
[1] = target: T1, murine SIRT3 recombinant protein (mouse); test: ITC; Nano ITC (TA Instruments); ATP5O titrated into a SIRT3-containing solution at 25 °C; NanoAnalyze
T1 sequence (Q8R104 whole entry, looked up): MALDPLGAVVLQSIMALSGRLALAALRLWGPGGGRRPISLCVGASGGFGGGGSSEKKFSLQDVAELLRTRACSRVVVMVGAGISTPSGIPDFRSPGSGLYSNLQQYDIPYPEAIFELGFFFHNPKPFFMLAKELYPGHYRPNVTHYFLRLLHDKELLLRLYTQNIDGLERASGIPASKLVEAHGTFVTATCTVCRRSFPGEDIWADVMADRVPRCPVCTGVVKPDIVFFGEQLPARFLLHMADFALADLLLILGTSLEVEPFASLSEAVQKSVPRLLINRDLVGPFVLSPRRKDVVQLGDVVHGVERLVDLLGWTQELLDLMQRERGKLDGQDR

[2] = target: T1, murine SIRT3 recombinant protein (mouse); test: SPR; SIRT3 immobilised on a carboxyl sensor chip; ATP5O diluted in running buffer and injected from low to high concentrations; kinetics analysed with Trace Drawer

B1: murine ATP5O recombinant protein (natural protein)
chain: FAKLVRPPVQVYGIEGRYATALYSAASKEKKLDQVEKELLRVGQLLKDPKVSLAVLNPYIKRTVKVKSLNDITKREKFSPLTANLMNLLAENGRLGNTQGIISAFSTIMSVHRGEVPCTVTTASPLDDAVLSELKTVLKSFLSPNQILKLEIKTDPSIMGGMIVRIGEKYVDMSAKSKIQKLSKAMREML
Kd [1]: 1310 nM
Kd [2]: 0.0653 nM
koff [2]: 5.54e-08 s⁻¹
kon [2]: 850 M⁻¹ s⁻¹
